# Results published in publication PMC11922060.
# B1: Sumo-tagged Drosophila Spd-2 SP2D (Spd-2 697-998), wild type [D. melanogaster] / itself (parent)
# chain: LLPLKVTHTTLCWGSTKLRTDVRKSMQVKNTADKRLVIRLGIQGPGFQLVGTDSSTITLQAMECRSVVINFCPTVCGAAIGALSFYAPPGAHNSNQPGLEIPLYGYGGSASITINGLLKGPVGASFLTIGDVCELSAGPLSANLKFHNKGPLTAFVGISVDSTVLMKLRLSEAFEVRPSRLILPPNSERCVQILFRPNREDLKNILKKTAQVLTLANMRIFCGDEPNRQRMRSLVQRMSSRQREKLTSPMLDSIWGEFPDEQPVRNIGQLNEPPEFILDLVTVVRIIDVALTLNRDFDESSE
# Variants of: B1
# Assay: SEC-MALS
# Details: with itself; 200 µM protein; read off a plot
row,Variant,screen value
1,LLPLKVTHTTLCWGSTKLRTDVRKSMQVKNTADKRLVIRLGIQGPGFQLVGTDSSTITLQAMECRSVVINFCPTVCGAAIGALSFYAPPGAHNSNQPGLEIPLYGYGGSASITINGLLKGDVGASFLTIGDVCELSAGPLSANLKFHNKGPLTAFVGISVDSTVLMKLRLSEAFEVRPSRLILPPNSERCVQILFRPNREDLKNILKKTAQVLTLANMRIFCGDEPNRQRMRSLVQRMSSRQREKLTSPMLDSIWGEFPDEQPVRNIGQLNEPPEFILDLVTVVRIIDVALTLNRDFDESSE [chain 1 P121D],45 kDa
2,LLPLKVTHTTLCWGSTKLRTDVRKSMQVKNTADKRLVIRLGIQGPGFQLVGTDSSTITLQAMECRSVVINFCPTVCGAAIGALSFYAPPGAHNSNQPGLEIPLYGYGGSASITINGLLKGPVGASDLTIGDVCELSAGPLSANLKFHNKGPLTAFVGISVDSTVLMKLRLSEAFEVRPSRLILPPNSERCVQILFRPNREDLKNILKKTAQVLTLANMRIFCGDEPNRQRMRSLVQRMSSRQREKLTSPMLDSIWGEFPDEQPVRNIGQLNEPPEFILDLVTVVRIIDVALTLNRDFDESSE [chain 1 F126D],46 kDa
